Six molecules from patent publication US20250136718A1 (MABWELL THERAPEUTICS, published 2025) can be followed below.

One experiment concerns the target T1, human ecto-TMPRSS6-FLAG (UniProt Q8IU80 77-811).
T1 chain: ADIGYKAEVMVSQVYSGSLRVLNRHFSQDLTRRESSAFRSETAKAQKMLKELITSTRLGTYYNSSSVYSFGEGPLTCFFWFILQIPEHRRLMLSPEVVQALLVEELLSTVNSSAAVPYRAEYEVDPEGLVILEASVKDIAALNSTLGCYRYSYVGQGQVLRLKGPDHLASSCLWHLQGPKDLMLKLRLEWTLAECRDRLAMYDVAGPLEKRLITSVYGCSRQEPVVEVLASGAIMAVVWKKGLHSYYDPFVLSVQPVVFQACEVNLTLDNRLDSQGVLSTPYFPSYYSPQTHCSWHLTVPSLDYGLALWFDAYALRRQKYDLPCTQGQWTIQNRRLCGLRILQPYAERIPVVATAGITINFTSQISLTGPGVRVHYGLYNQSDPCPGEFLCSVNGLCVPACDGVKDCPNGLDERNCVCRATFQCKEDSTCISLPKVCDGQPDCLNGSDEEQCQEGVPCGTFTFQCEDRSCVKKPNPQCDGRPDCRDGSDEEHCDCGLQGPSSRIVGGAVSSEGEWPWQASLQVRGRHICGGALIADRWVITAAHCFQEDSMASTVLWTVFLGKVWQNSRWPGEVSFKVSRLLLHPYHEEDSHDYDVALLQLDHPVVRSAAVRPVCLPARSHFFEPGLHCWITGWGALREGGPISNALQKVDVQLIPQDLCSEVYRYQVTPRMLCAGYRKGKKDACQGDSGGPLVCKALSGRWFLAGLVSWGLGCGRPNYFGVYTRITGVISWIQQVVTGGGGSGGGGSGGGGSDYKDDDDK
Description: BLI (Octet). (Biolayer interferometry detects binding as a change in optical thickness at a sensor tip.)

Experiment [1] deals with T2, matriptase (ST14) over-expressed in HEK293T cells (human, UniProt Q9Y5Y6 1-855).
T2 construct: also called matriptase-1
T2 sequence: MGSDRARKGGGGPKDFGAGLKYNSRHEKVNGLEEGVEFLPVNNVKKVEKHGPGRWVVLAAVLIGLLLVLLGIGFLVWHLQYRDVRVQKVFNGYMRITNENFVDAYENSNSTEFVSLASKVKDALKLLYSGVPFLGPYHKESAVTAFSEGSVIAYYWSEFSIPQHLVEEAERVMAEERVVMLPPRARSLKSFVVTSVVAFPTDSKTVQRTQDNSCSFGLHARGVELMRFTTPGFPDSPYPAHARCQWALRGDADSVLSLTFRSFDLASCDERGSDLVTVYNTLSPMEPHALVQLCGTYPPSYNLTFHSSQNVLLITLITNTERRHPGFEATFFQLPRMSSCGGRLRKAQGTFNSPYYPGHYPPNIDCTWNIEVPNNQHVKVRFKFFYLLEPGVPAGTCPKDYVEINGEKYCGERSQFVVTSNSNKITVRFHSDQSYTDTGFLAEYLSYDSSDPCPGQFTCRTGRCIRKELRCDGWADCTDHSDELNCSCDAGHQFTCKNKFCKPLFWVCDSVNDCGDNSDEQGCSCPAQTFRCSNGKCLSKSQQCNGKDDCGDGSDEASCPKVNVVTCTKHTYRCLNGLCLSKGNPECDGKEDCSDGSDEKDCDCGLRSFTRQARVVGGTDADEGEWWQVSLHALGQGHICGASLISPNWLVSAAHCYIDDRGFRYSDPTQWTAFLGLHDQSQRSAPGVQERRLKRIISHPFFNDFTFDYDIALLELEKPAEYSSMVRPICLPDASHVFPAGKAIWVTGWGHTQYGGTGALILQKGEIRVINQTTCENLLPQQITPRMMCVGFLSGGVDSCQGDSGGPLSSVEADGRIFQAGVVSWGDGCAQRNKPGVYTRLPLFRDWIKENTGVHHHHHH
Put plainly: FACS on permeabilized HEK293T cells over-expressing matriptase (ST14). The text has this:
To determine if anti-TMPRSS6 antibodies bind to homologous matriptases, HEK293T cells over-expressing matriptase (ST14) (SEQ ID NO: 100) (FIGS. 5B, 5E, 5H, 5K, 5N, 5Q), and HEK293T cells over-expressing matriptase-3 (TMPRSS7) (SEQ ID NO: 101) (FIGS. 5C, 5F, 5I, 5L, 5O, 5R) were collected (generated in house). HEK293T cells stably expressing human TMPRSS6 (matriptase-2) (SEQ ID NO: 97) (generated by LakePharma Inc as described above, FIGS. 5A, 5D, 5G, 5J, 5M, 5P) were used as a positive control and HEK293T cells (FIGS. 5A-5R) were used as a negative control (as described above). Cells were blocked and permeabilized with dPBS+3% BSA+0.1% Tween-20 before incubation with various anti-TMPRSS6 antibodies diluted in dPBS+3% BSA+0.1% Tween-20. Cells were incubated with anti-TMPRSS6 antibodies and their humanized variants at a concentration of roughly 1 μg/ml for 1 hr. After incubation, cells were washed with dPBS and incubated with goat anti-mouse IgG conjugated with AlexaFluor-488 (Invitrogen, FIGS. 5A-5I) or goat anti-human IgG conjugated with Allophycocyanin (APC) (Jackson Immuno Research, FIGS. 5J-5R) as a 2° antibody. At last, cells were washed with dPBS and re-suspended with dPBS+1 mM EDTA, and then subjected to FACS analysis using a NOVOCYTE® Flow Cytometer. Bound antibody was determined by excitation at 488 nm and measurement of emission (FITC-A) at 530 nm (FIGS. 5A-5I) or by excitation at 640 nm and measurement of emission (APC-A) at 675 nm (FIGS. 5J-5R). Results for these assays are shown in histogram plots in FIGS. 5A-5R.

B1: MWTx-001 anti-TMPRSS6 monoclonal antibody (antibody, mouse IgG2a, kappa, V domains shown)
VH: QVQLQQPGAELAKPGASVKMSCKASGYTFTSYWITWVKQRPGQDLEWIGNIYPGSGSTYYNEKFKSKATLTVDTSSRTAYMQLSSLTSADSAVYYCAPYDSDYAMDYWGQGTSVTVSS
VL: DIKMTQSPSSMYASLGERVTITCKASQDINNYLSWFQQKPGKSPKTLIYRANRLVDGVPSRVSGSGSGQDYSLTISSLEYEDVGIYFCLQYDEFPLTFGAGTKLELKR
notes: Mouse monoclonal antibody from hybridoma (ATCC PTA-126759)
Broadly, the Kd is the constant that tells how readily two partners part at equilibrium. A high value points to weaker binding. In turn, B1 yielded a dissociation constant Kd in the experiment with human ecto-TMPRSS6-FLAG of 0.66 nM. In addition, the binding result in experiment [1] was “no binding (tested: roughly 1 µg/ml)”.

B2: MWTx-003 anti-TMPRSS6 monoclonal antibody (antibody, mouse IgG2b, kappa, V domains shown)
VH: EVQLQQSGAELVKPGASVKLSCTASGFNIEDYYIHWVKERTEQGLEWIGRIDPEDGETTYAPQFQGKATIIPDTSSNTAYMQLSSLTSEDAAVYYCARSIYLDPMDYWGQGTSVTVSS
VL: DIVMTQSHKFMSTSVGDRVSITCKASQDVTTAVAWYQQKPGQSPKILIYWATTRHTGVPDRFTGSISGTTYILTISSVQAEDLALYYCQQHYSTPYTFGGGTKLEIKR
notes: Mouse monoclonal antibody from hybridoma (ATCC PTA-126761); The recombinant version r4K12B has the same HC and LC; also called r4K12B; recombinant MWTx-003
B2 displayed a dissociation constant Kd in the experiment with human ecto-TMPRSS6-FLAG of 6.4 nM. Besides, in experiment [1], the binding result is given as “no binding (tested: roughly 1 µg/ml)”.

B3: humanized anti-TMPRSS6 antibody variant hzMWTx-001 Var (antibody, human IgG1, kappa, N297A, V domains shown)
VH: EVQLVQSGAEVKKPGASVKVSCKASGYTFTSYWITWVRQAPGQRLEWIGNIYPGSGSTYYNEKFKSKATITRDTSSRTAYMELSSLRSEDTAVYYCAPYDADYAMDYWGQGTLVTVSS
VL: DIQMTQSPSSLSASVGDRVTITCKASQDISNYLSWFQQKPGKAPKLLIYRANRLVEGVPSRFSGSGSGTDFTLTISSLQPEDFATYFCLQYDEFPLTFGGGTKVEIKR
notes: Human IgG1 / kappa
Molecule B3 registered an equilibrium dissociation constant (Kd) with human ecto-TMPRSS6-FLAG of 3.36 nM. The binding result in experiment [1] is listed as “no binding (tested: roughly 1 µg/ml)”.

B4: MWTx-002 anti-TMPRSS6 monoclonal antibody (antibody, mouse IgG2b, kappa, V domains shown)
VH: EVQLQQSGAELVKPGASVKLSCTASGFNIKDYYIHWVKERTEQGLEWFGRIDPEDGESEYAPKFQGKATLTADTSSNTAYLQLSSLTSEDTAVYYCTRGDSMMVTYFDYWGQGTTLTVSS
VL: DIVMTQSHKFMSTSVGDRVSITCKASQDVSTAVAWYQQKPGQSPKLLIYWAFTRHTGVPDRFTSTGSGTDYALTISSVQAEDLALYYCQQHYRSPWTFGGGTKLEIKR
notes: Mouse monoclonal antibody from hybridoma (ATCC PTA-126760)
B4 came in with a dissociation constant (Kd) with human ecto-TMPRSS6-FLAG of 0.82 nM. Besides, the binding result in experiment [1] is given as “no binding (tested: roughly 1 µg/ml)”.

B5: humanized anti-TMPRSS6 antibody variant hzMWTx-002 Var (antibody, human IgG1, kappa, N297A, V domains shown)
VH: EVQLVQSGAEVKKPGASVKVSCKASGFNIKDYYIHWVRQATGQGLEWMGRIDPEDAESEYAPKFQGRVTITADTSTDTAYMELSSLRSEDTAVYYCTRGDSMMVTYFDYWGQGTLVTVSS
VL: DIQMTQSPSSLSASVGDRVTITCKASQDVSTAVAWYQQKPGKAPKLLIYWAFTRHTGVPSRFSGSGSGTDYALTISSLQPEDFATYYCQQHYRSPWTFGGGTKVEIKR
notes: Human IgG1 / kappa
In the experiment with human ecto-TMPRSS6-FLAG, B5 came in with a Kd of 18.4 nM. In addition, in experiment [1], the binding result is on record as “no binding (tested: roughly 1 µg/ml)”.

B6: humanized anti-TMPRSS6 antibody variant hzMWTx-003 Var (antibody, human IgG1, kappa, L234A L235A, V domains shown)
VH: QVQLVQSGAEVKKPGASVKVSCKASGFNIEDYYMHWVRQAPGQRLEWMGRIDPEDAETTYSPKFQGRVTIIPDTSANTAYMELSSLRSEDTAVYYCARSIYLDPMDYWGQGTLVTVSS
VL: DIQMTQSPKSLSASVGDRVTITCRASQDVTTALAWYQQKPGQSPKLLIYWATTRHSGVPSRFSGSGSGTDFTLTISSLQPEDFATYYCQQHYSTPYTFGQGTKLEIKR
notes: Human IgG1 / kappa
Molecule B6 had an equilibrium dissociation constant (Kd) with human ecto-TMPRSS6-FLAG of 13.7 nM. Further, in experiment [1], the binding result is reported as “no binding (tested: roughly 1 µg/ml)”.
